Patent publication US20240209088A1
Where “and” joins values, the source holds several entries; their conditions need not be identical. Identical values can stand only once.

Columns and labels:
[1] = target: full-length human CD4 on cells (human) (UniProt P01730); test: flow cytometry of human PBMCs, donor 1, labeled Nb with anti-CD3-FITC; the same panel in Fig. 8A prints 0.62
[2] = target: full-length human CD4 on cells (human) (UniProt P01730); test: flow cytometry of human PBMCs, donor 1, labeled Nb with anti-CD3-FITC; the same panel in Fig. 3A prints 0,82
[3] = target: full-length human CD4 on cells (human) (UniProt P01730); test: flow cytometry of human PBMCs, donor 1, labeled Nb with anti-CD3-FITC
[4] = target: full-length human CD4 on cells (human) (UniProt P01730); test: as above; remark: listed apart in the source
[5] = target: full-length human CD4 on cells (human) (UniProt P01730); test: flow cytometry of human PBMCs, donor 2, labeled Nb with anti-CD3-FITC
[6] = target: full-length human CD4 on cells (human) (UniProt P01730); test: flow cytometry of human PBMCs, donor 3, labeled Nb with anti-CD3-FITC
[7] = target: full-length human CD4 on cells (human) (UniProt P01730); test: flow cytometry of human PBMCs, donor 1, with anti-CD3-FITC; c (nM) ~1
[8] = target: full-length human CD4 on cells (human) (UniProt P01730); test: flow cytometry of human PBMCs, donor 3, labeled anti-CD4 antibody with anti-CD3-FITC
[9] = target: full-length human CD4 on cells (human) (UniProt P01730); test: flow cytometry of human PBMCs, donor 2, with anti-CD3-FITC; c (nM) ~1
[10] = target: full-length human CD4 on cells (human) (UniProt P01730); test: flow cytometry of human PBMCs, donor 1, labeled anti-CD4 antibody with anti-CD3-FITC
[11] = target: full-length human CD4 on cells (human) (UniProt P01730); test: flow cytometry of human PBMCs, donor 3, with anti-CD3-FITC; c (nM) ~1
[12] = target: full-length human CD4 on cells (human) (UniProt P01730); test: flow cytometry of human PBMCs, donor 2, labeled anti-CD4 antibody with anti-CD3-FITC

Substance | percent of cells in the CD3- CD4+ quadrant [1] | percent of cells in the CD3- CD4+ quadrant [2] | percent of cells in the CD3+ CD4+ quadrant [3] | percent of cells in the CD3+ CD4+ quadrant [4] | percent of cells in the CD3+ CD4+ quadrant [5] | percent of cells in the CD3- CD4+ quadrant [5] | percent of cells in the CD3+ CD4+ quadrant [6] | percent of cells in the CD3- CD4+ quadrant [6] | Frequency CD3+ CD4+ (%) [7] | percent of cells in the CD3+ CD4+ quadrant [8] | percent of cells in the CD3- CD4+ quadrant [8] | Frequency CD3+ CD4+ (%) [9] | percent of cells in the CD3+ CD4+ quadrant [10] | percent of cells in the CD3- CD4+ quadrant [10] | Frequency CD3+ CD4+ (%) [11] | percent of cells in the CD3+ CD4+ quadrant [12] | percent of cells in the CD3- CD4+ quadrant [12]
non-specific fluorescently labeled GFP-binding Nb (VHH) | 0.82% | 0.62% | 1.39% | 0.13% | 0.03% and 0.26% | 0.14% and 0.36% | 0.03% and 0.95% | 0.16% and 1.36% | – | – | – | – | – | – | – | – | –
anti-human CD4 antibody RPA-T4 | – | – | – | – | – | – | – | – | 32.7% | 24.3% | 43.4% | 26.2% | 33.7% | 21.7% | 22.8% | 27% | 22.4%
